Values of other authors, collected in paper PMC3379994, “Comprehensive Analysis of Interactions between the Src-Associated Protein in Mitosis of 68 kDa and the Human Src-Homology 3 Proteome” (PLoS ONE, 2012).

Target: Nef (Human immunodeficiency virus 1) (UniProt P04324)
Assay: SPR

Chain of Hck SH3 (P08631 75-141): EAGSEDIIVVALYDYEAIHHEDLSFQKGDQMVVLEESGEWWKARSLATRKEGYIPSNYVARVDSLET

Question: For Hck SH3 (from UniProt P08631), which Kd is on record?
Answer: The Kd was 250 nM.
